Experimental data taken from patent publication US20240352438A1, “MEANS AND METHODS FOR DETOXIFYING OCHRATOXIN A” (DSM Austria GmbH, priority 2021, published 2024).

Assay: OTA detoxification activity assay (specific activity, fluorescence reduction ex/em 390/450 nm)
Format: biochemical
Conditions: SEQ ID NO: 1 = 100%
How it was run: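 Recombinant enzyme preparation with 200 ng/mL OTA in 100 mM sodium phosphate, at pH 6.0 and pH 7.5, 37° C. Degradation followed as the fall in fluorescence at ex/em 390/450 nm. Specific activity taken from the initial linear slope; one unit degrades 1 μmol OTA per min at a starting OTA of […].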

Molecule	Specific OTA detoxification activities in % compared to the enzyme of SEQ ID NO: 1, pH 6.0 [%]	Specific OTA detoxification activities in % compared to the enzyme of SEQ ID NO: 1, pH 7.5 [%]
263 (protein, exemplary polypeptide) MTTRTRILTAFLSLLAANACAADAAPAAPHTVVLRAARMFDGASGKLVDHPQLTIVGNKIVRIAQGDKAEVPAGAEVVDLGDATLLPGFIDAHVHLSGQSSDNWNGDFFDNMMRFPAEQALYGAYYARITLEAGFTSVRDVGSTDWVALGLRNAIDAGKVPGPRMLVSNYAVGSTGGHADQDPIPPHKLPLAGPLQGVCNGPEECRAAVRYQIKYGANVIKFMPSGGVLSLSDPVDAPELSQDEMNAVIGESHAWGRKVAAHAHGDKAAKMAVAAGVDSIEHGSFIEDDTLRAMKAKNVYLVPTISAIAHVEEKIGTFPPVIAEKGRAAAAHLRQTFRHAVQIGVPIALGTDAGVGAHGSNAREFRYMVENGLTPAQALLAGTANAARLLGTFDRVGTLEAGKLADVVAVPGNPIADITVTERPLFVMKDGVVVRRDAVR	19	11
283 (protein, exemplary polypeptide) MTTRTRILTAFLSLLAANACAADAAPAAPHTVVLRAARMFDGASGKLVDHPQLTIVGNKIVRIAQGDKAEVPAGAEVVDLGDATLLPGFIDAHVHLSGQSSDNWYGDFFDNMMRFPAEQALYGAYYARITLEAGFTSVRDVGSTDWVALGLRNAIDAGKVPGPRMLVSNYAVGSTGGHADQDPIPPHKLPLAGPLQGVCNGPEECRAAVRYQIKYGANVIKFMPSGGVLSLSDPDDAPELSQDEMNAVIGESHAWGRKVAAHAHGDKAAKMAVAAGVDSIEHGSFIEDDTLRAMKAKNVYLVPTISAIAHVEEKIGTFPPVIAEKGRAAAAHLRQTFRHAVQIGVPIALGTDAGVGAHGSNAREFRYMVENGLTPAQALLAGTANAARLLGTFDRVGTLEAGKLADVVAVPGNPIADITVTERPLFVMKDGVVVRRDAVR	29	23
265 (protein, exemplary polypeptide) MTTRTRILTAFLSLLAANACAADAAPAAPHTVVLRAARMFDGASGKLVDHPQLTIVGNKIVRIAQGDKAEVPAGAEVVDLGDATLLPGFIDAHVHLSGQSSDNWYPDFFDNMMRFPAEQALYGAYYARITLEAGFTSVRDVGSTDWVALGLRNAIDAGKVPGPRMLVSNYAVGSTGGHADQDPIPPHKLPLAGPLQGVCNGPEECRAAVRYQIKYGANVIKFMPSGGVLSLSDPVDAPELSQDEMNAVIGESHAWGRKVAAHAHGDKAAKMAVAAGVDSIEHGSFIEDDTLRAMKAKNVYLVPTISAIAHVEEKIGTFPPVIAEKGRAAAAHLRQTFRHAVQIGVPIALGTDAGVGAHGSNAREFRYMVENGLTPAQALLAGTANAARLLGTFDRVGTLEAGKLADVVAVPGNPIADITVTERPLFVMKDGVVVRRDAVR	20	11
279 (protein, exemplary polypeptide) MTTRTRILTAFLSLLAANACAADAAPAAPHTVVLRAARMFDGASGKLVDHPQLTIVGNKIVRIAQGDKAEVPAGAEVVDLGDATLLPGFIDAHVHLSGQSSDNWYGDFFDNMMRFPAEQALYGAYYARITLEAGFTSVRDVGSTDWVALGLRNAIDAGKVPGPRMLVSNYAVGSTGGHADQDPIPPHKLPLVGPLQGVCNGPEECRAAVRYQIKYGANVIKFMPSGGVLSLSDPVDAPELSQDEMNAVIGESHAWGRKVAAHAHGDKAAKMAVAAGVDSIEHGSFIEDDTLRAMKAKNVYLVPTISAIAHVEEKIGTFPPVIAEKGRAAAAHLRQTFRHAVQIGVPIALGTDAGVGAHGSNAREFRYMVENGLTPAQALLAGTANAARLLGTFDRVGTLEAGKLADVVAVPGNPIADITVTERPLFVMKDGVVVRRDAVR	23	36
264 (protein, exemplary polypeptide) MTTRTRILTAFLSLLAANACAADAAPAAPHTVVLRAARMFDGASGKLVDHPQLTIVGNKIVRIAQGDKAEVPAGAEVVDLGDATLLPGFIDAHVHLSGQSSDNWRGDFFDNMMRFPAEQALYGAYYARITLEAGFTSVRDVGSTDWVALGLRNAIDAGKVPGPRMLVSNYAVGSTGGHADQDPIPPHKLPLAGPLQGVCNGPEECRAAVRYQIKYGANVIKFMPSGGVLSLSDPVDAPELSQDEMNAVIGESHAWGRKVAAHAHGDKAAKMAVAAGVDSIEHGSFIEDDTLRAMKAKNVYLVPTISAIAHVEEKIGTFPPVIAEKGRAAAAHLRQTFRHAVQIGVPIALGTDAGVGAHGSNAREFRYMVENGLTPAQALLAGTANAARLLGTFDRVGTLEAGKLADVVAVPGNPIADITVTERPLFVMKDGVVVRRDAVR	46	44
293 (protein, exemplary polypeptide) MTTRTRILTAFLSLLAANACAADAAPAAPHTVVLRAARMFDGASGKLVDHPQLTIVGNKIVRIAQGDKAEVPAGAEVVDLGDATLLPGFIDAHVHLSGQSSDNWYGDFFDNMMRFPAEQALYGAYYARITLEAGFTSVRDVGSTDWVALGLRNAIDAGKVPGPRMLVSNYAVGSTGGHADQDPIPPHKLPLAGPLQGVCNGPEECRAAVRYQIKYGANVIKFMPSGGVLSLSDPVDAPELSQDEMNAVIGESHAWGRKVAAHAHGDKAAKMAVAAGVDSIEHGSFIEDDTLRAMKAKNVYLVPTISAVAHVEEKIGTFPPVIAEKGRAVAAHLRQTFRHAVQIGVPIALGTDAGVGAHGSNAREFRYMVENGLTPAQALLAGTANAARLLGTFDRVGTLEAGKLADVVAVPGNPIADITVTERPLFVMKDGVVVRRDAVR	16	18
278 (protein, exemplary polypeptide) MTTRTRILTAFLSLLAANACAADAAPAAPHTVVLRAARMFDGASGKLVDHPQLTIVGNKIVRIAQGDKAEVPAGAEVVDLGDATLLPGFIDAHVHLSGQSSDNWYGDFFDNMMRFPAEQALYGAYYARITLEAGFTSVRDVGSTDWVALGLRNAIDAGKVPGPRMLVSNYAVGSTGGHADQDPIPPHKLPLMGPLQGVCNGPEECRAAVRYQIKYGANVIKFMPSGGVLSLSDPVDAPELSQDEMNAVIGESHAWGRKVAAHAHGDKAAKMAVAAGVDSIEHGSFIEDDTLRAMKAKNVYLVPTISAIAHVEEKIGTFPPVIAEKGRAAAAHLRQTFRHAVQIGVPIALGTDAGVGAHGSNAREFRYMVENGLTPAQALLAGTANAARLLGTFDRVGTLEAGKLADVVAVPGNPIADITVTERPLFVMKDGVVVRRDAVR	32	19
271 (protein, exemplary polypeptide) MTTRTRILTAFLSLLAANACAADAAPAAPHTVVLRAARMFDGASGKLVDHPQLTIVGNKIVRIAQGDKAEVPAGAEVVDLGDATLLPGFIDAHVHLSGQSSDNWYGDFFDNMRRFPAEQALYGAYYARITLEAGFTSVRDVGSTDWVALGLRNAIDAGKVPGPRMLVSNYAVGSTGGHADQDPIPPHKLPLAGPLQGVCNGPEECRAAVRYQIKYGANVIKFMPSGGVLSLSDPVDAPELSQDEMNAVIGESHAWGRKVAAHAHGDKAAKMAVAAGVDSIEHGSFIEDDTLRAMKAKNVYLVPTISAIAHVEEKIGTFPPVIAEKGRAAAAHLRQTFRHAVQIGVPIALGTDAGVGAHGSNAREFRYMVENGLTPAQALLAGTANAARLLGTFDRVGTLEAGKLADVVAVPGNPIADITVTERPLFVMKDGVVVRRDAVR	6	23
276 (protein, exemplary polypeptide) MTTRTRILTAFLSLLAANACAADAAPAAPHTVVLRAARMFDGASGKLVDHPQLTIVGNKIVRIAQGDKAEVPAGAEVVDLGDATLLPGFIDAHVHLSGQSSDNWYGDFFDNMMRFPAEQALYGAYYARITLEAGFTSVRDVGSTDWVALGLRNAIDAGKVPGPRMLVSNYAVGSTSGHADQDPIPPHKLPLAGPLQGVCNGPEECRAAVRYQIKYGANVIKFMPSGGVLSLSDPVDAPELSQDEMNAVIGESHAWGRKVAAHAHGDKAAKMAVAAGVDSIEHGSFIEDDTLRAMKAKNVYLVPTISAIAHVEEKIGTFPPVIAEKGRAAAAHLRQTFRHAVQIGVPIALGTDAGVGAHGSNAREFRYMVENGLTPAQALLAGTANAARLLGTFDRVGTLEAGKLADVVAVPGNPIADITVTERPLFVMKDGVVVRRDAVR	13	30
277 (protein, exemplary polypeptide) MTTRTRILTAFLSLLAANACAADAAPAAPHTVVLRAARMFDGASGKLVDHPQLTIVGNKIVRIAQGDKAEVPAGAEVVDLGDATLLPGFIDAHVHLSGQSSDNWYGDFFDNMMRFPAEQALYGAYYARITLEAGFTSVRDVGSTDWVALGLRNAIDAGKVPGPRMLVSNYAVGSTGGHADQDPIPPHKLPLLGPLQGVCNGPEECRAAVRYQIKYGANVIKFMPSGGVLSLSDPVDAPELSQDEMNAVIGESHAWGRKVAAHAHGDKAAKMAVAAGVDSIEHGSFIEDDTLRAMKAKNVYLVPTISAIAHVEEKIGTFPPVIAEKGRAAAAHLRQTFRHAVQIGVPIALGTDAGVGAHGSNAREFRYMVENGLTPAQALLAGTANAARLLGTFDRVGTLEAGKLADVVAVPGNPIADITVTERPLFVMKDGVVVRRDAVR	6	14
266 (protein, exemplary polypeptide) MTTRTRILTAFLSLLAANACAADAAPAAPHTVVLRAARMFDGASGKLVDHPQLTIVGNKIVRIAQGDKAEVPAGAEVVDLGDATLLPGFIDAHVHLSGQSSDNWYGRFFDNMMRFPAEQALYGAYYARITLEAGFTSVRDVGSTDWVALGLRNAIDAGKVPGPRMLVSNYAVGSTGGHADQDPIPPHKLPLAGPLQGVCNGPEECRAAVRYQIKYGANVIKFMPSGGVLSLSDPVDAPELSQDEMNAVIGESHAWGRKVAAHAHGDKAAKMAVAAGVDSIEHGSFIEDDTLRAMKAKNVYLVPTISAIAHVEEKIGTFPPVIAEKGRAAAAHLRQTFRHAVQIGVPIALGTDAGVGAHGSNAREFRYMVENGLTPAQALLAGTANAARLLGTFDRVGTLEAGKLADVVAVPGNPIADITVTERPLFVMKDGVVVRRDAVR	11	22
